# Results taken from the DeepSol protein solubility set.
# Experiment: soluble on expression in E. coli; label from the status in PepcDB or PDB records
row,Sequence,soluble on expression in E. coli
1,MSLSNNTINIALIGYGFVGKTFHAPLIRSVPGLNLAFVASRDEEKVKRDLPDVTVIASPEAAVQHPDVDLVVIASPNATHAPLARLALNAGKHVVVDKPFTLDMQEARELIALAEEKQRLLSVFHNRRWDSDYLGIRQVIEQGTLGAVKHFESHFDRFRPEVRVRWREQNVPGSGLWFDLGPHLIDQALQLFGLPQSVQGNIATLRDGAEINDWAHVVLNYPAHKVILHCSMLVAGGSSRFTVHGDKGSVIKARADQQESQLLAGVVPGSADWGQDDDPLVIYDASLQAHAQATPQGDQRQYYMLIRDALKGQIANPVPPVEALAVMAVLEAAVRSAESGMVQTLDLSDDERNTLREGHHHHHH,soluble
2,MSLSNTGINCPFDCGLCPRHRSHTSLINIVLTNRCNLSCWYCFFYAREGEPIYEPTLEQIRMMLRNAKKEHPIGANAVQFTGGEPTLRDDLIEIIKIAKEEGYDHIQLNTDGIKLAFDPELVKKLREAGVNTLYLSYDGMTPQTNWKNHWEIPLIFENVRKAGGPGIVLVPTLIRNINDHEAGAIINFGLNHLDIVRGVNFQPISLVGRVPRKERQRFRITIAGAIKKIEEQTNGVIAKEDWYPIPIAGHIARFFEAFTGRKYYMTSHFACGAATYVFLDREEKKVIPIPRFIDVDGFVEFLVEKAEEIEKARFKSLAKLKAIGETIFVKFKQFYDEKNAPKGLDVLGLIKNAFVHGTYDALGKFHMNTLFIGMMHFMDEYNYDVERVERCVIHYAMPDGRIVPFCTFNVIPEIYRDKVQRQFSYSWEEWKKLHPDEGHHHHHH,not soluble
3,MSLSQLFKSFDASEKTQLICFPFAGGYSASFRPLHAFLQGECEMLAAEPPGHGTNQTSAIEDLEELTDLYKQELNLRPDRPFVLFGHSMGGMITFRLAQKLEREGIFPQAVIISAIQPPHIQRKKVSHLPDDQFLDHIIQLGGMPAELVENKEVMSFFLPSFRSDYRALEQFELYDLAQIQSPVHVFNGLDDKKCIRDAEGWKKWAKDITFHQFDGGHMFLLSQTEEVAERIFAILNQHPIIQPEGGSHHHHHH,soluble
4,MSLSRKWLNKVKWDDHGLVPVIVQEQGSNDVLMFAFMNREALQKTVETGEAVFWSRSRKRLWHKGEESGHIQQVHEIRLDCDEDVVLLRVTQVGGIACHTGRHACFFQKFEGTAEDGDWHTVEPVLKNPDDIYAGKPGHNHEEGHHHHHH,not soluble
5,MSLSRNSDLHMHSTASDGGYSPTELMEKCHQANLKFVALTDHDTVNGIEEAKQTAHRLGFILIPGIELSTKASGQSVHMLGYGIDWKNDTLKRRLDRQQDIRKQRLEQILLKLKAAGVPLEQDAVLRYADGGAIGRPHVAKALMDKGYVRSVQEAFEHYLAEGRPCYVKRQEYISVEQAIAWIHQAGGVAIVAHPGYYDLDDQLIGWVREYGLDGIEVYHRDHSREVVAHYEQLCKRMEAETGRRLLRTGGSDFHHESYGRTAAPLGTTRIPDQLTYELLHDLERKKTRAEGHHHHHH,soluble
6,MSLSSITNVAATAGVSIATVSRVLSGKRGKDDDIARRVREAAKQLGYSVNYAASALRSDVTKTIGLVIPSATEPFSAQLLDEIEPTIDTESQQLLLGIGATQEAQAERIESLVNRHVDGLIVVPAAGADLAGTLNQYANTLPIVQICGRQTAPRVSVVGIDENAAMEAIVKHLAEQGIASAAYMAGDELSFESAELFATFHTHMRTYGLVTSENWNQFGERTVQRGFDCAMRLFNGPLVQPEAVVCADDAIAFGVMVAFDALGIRVPEDVLVVGYHDSAIARTTMPRLTSVRAPFERIVSECLRLLASGPAGGAAETAAAPGGSVRAPRVMLAPQLIVRDSSVFREGHHHHHH,soluble
7,MSLSVSFIFLLVASIGAVVADSENVLVLTESNFEETINGNEFVLVKFYAPWCVHCKSLAPKYDEAADLLKEEGSDIKLAKVDATENQALASKFEVRGYPTILYFKSGKPTKYTGGRATAQIVDWVKKKSGPTVTTVESVEQLEELKGKTRVVVLGYFKDAKSDAATIYNEVADSVDDAFFAVAGSAEVAAAASLNEDGVALIRTDGDDSETSTIAEAEITNTIALKQWLHAYKLSAVTEFTHESAQEIVGGDLKKFHFLIIRKSDSSFDETIAKFTEVAKKFRAKIVFVLLDVDVEENARILEFLGVDAKNTPANRIVSLADQVEKFKPQEGEDFEAFTNSYLEGKSAQDLKAQDLPEDWNALPVKVLVASNFNEIALDETKTVFVKFYAPWCGHCKQLVPVWDELAEKYESNPNVVIAKLDATLNELADVKVNSFPTLKLWPAGSSTPVDYDGDRNLEKFEEFVNKYAGSASESETASQDHEEL,not soluble
8,MSLTAYLHIGTTNTGNQEKQGFLMQNEEKLLQKAYIYPKSLRVANRHWALVDMVLELVQKEDILKKESVLSHITNERLLRAIENFKSESALHKDKKFIFSAEGIVWDFSTKKHVEILEKIMRELGFTQIYIIVYFRDTLGYLNSHCSQDHKNNMGYYSADFAPQDHPRKYIFDYEWICKTHAEVFGEENLIVRLLREDYVGGTLLKDFVYHLGLEWDESFVLKQTKNESFNLLGMELMSRLNQKDLKQDNLNSLLFMARRKFEGSKEKRLKFAVQKDIAKAYVDYFASSLEWVKNKYFPHKNSLFTPVNWEEYEQNYTLTHMLSKDWDDVADFIAQIIVSKNEIISSLKEQLELAREGHHHHHH,soluble
9,MSLTDDEISSTETAPDIATQPPLFVLGVGAARLDAGRLAELLDAVAGAANLAIMLLLRDRQLLDEAHLRALLGKQATLLSVPFDGEKLQPGRFYLPPADTVVTLEEGRIRLRALPNGESDHGLIDSFFVSMAHDQDGNVIGLIMGRFDGDGTLGTAAIKECGGLALAVDDASLHGLDLRSASNPAAITDHILPLPQLTARIAAHMQRHHGFGHPGPLGVRNGSESDKLSQIAAILRNTTGHDFHGYKRATFLRRVQQRMQVAQVEMLEQYLHILRYRFDEPLQLFNDLLIGVTKFFRDRRGFELLEQQVIPRLFKGKHTDDSMRVWVLGCSTGEEAYSLAMLLREHAETLDSAPRIQIFASDIDGRALATARVGRYASSIVGEVALERLRRWFVKEGDTYVVNKELRELCVFSQHSIVKDPPFSRLDLVSCRNLLIYLDAELQNRVIPIFHFAIRPGGYLFLGNAENVSLQAQLFTPVDRSVRVFQREGHHHHHH,not soluble
10,MSLTDEPKLLAEPREGVPNVIDTLPAFRDYCSELASSHGSLAADAERASGFRYGHEDWLVQFKRDGAGIGLLDPQALAAAGADWNDFNRAVGDAVWILHDSLQDLPGFDELGMEPQRLFDTEIAARLLGLKRFGLAAVTEHFLGLTLAKEHSAADWSYRPLPRDWRNYAALDVELLIELETKMRAELKRQGKMEWAQEEFDYALKEGLGPRKEHLIPWMHVSHITEVMRDRQALAIVRALWTRRDELAREYDIAPTLLLSDSSIIEVAKRKPHNAAQFRSIRSINERVRIHTDSEQDKMFERYAPIQRKIKPSMWKNIIQDALALPPSEWPDVDGGAARRHESQSASAPKSIRVWKERYPERLQVLNRVRKAVSQIAEDTRTPVEIVIKPQYLRNLCWTDEPRKRDVARFLSEQGARDWQVSLVAESVSRAIEGHHHHHH,soluble
11,MSLTDLSRPTLPGALPDKRQVAASFSRAAASYDSVAALQRAVGLSLLEQLPAGLQPSHWLDLGSGTGHFSRMLAERFAQAGGVAVDIAEGMLLHARHVKGGAQYHVVGDAERLPLRDASVDLVFSSLAVQWCDQFASVLAEAQRVLRPGGVLAFSSLCVGTLDELRASWQAVDGLVHVNRFRRFEDYQRLCAASGFEQLELERCPHVLHYPDVRSLTHELKALGAHNLNPGRPSGLTGRARMQGLLQAYEAFRQPAGLPATYQVVYGVLRKPLAEGHHHHHH,not soluble
12,MSLTDPLRFVLVPKVVHPWFDKVNDGAKAAAEMLTTTTGRKVTVEYRAPQKADVVEQNDIIARSIATRPDGIFVDLLDEKGNRAVLEEAQEQGIPVTVFDSVAPEGMNLTSIGNDFCEQATIASTRLVELMGGKGEVAIMMGVPTAPNHAIRAKCHEQTFAKYPDIKLVATGIDNDSIETAQKQAAAIMQAHPNLKGWVASDAAGPIGIGQAIKEAGKVGKVFEVGLDDLPDLLALIKEGVVDSSSSTKPEMQGYWAVIATWQKAMGMPTPKYIDTGIAVITKESLAKEGHHHHHH,soluble
13,MSLTEAGDSEGEQSYFVSTPDEYPGGHDREDDGSVYGQIHIEEESTIRYSWQDEIAQGTWRRKMRGDVGGEKPVKVLEVPALSLGGAIGSAHLKEEASGELRAEPTVIEKEIKIPHEFHTSIKGVFSSEPRHQLVEVIGQLEETLPERMKEELSALTRQSQGESGSVSVDVKKVQSAAGGSVTLMAEVNLSQTVDADQLDLEQLSRDEAGEIERAVESVVRESLAKRSSPVPRSEGHHHHHH,soluble
14,MSLTELPRIISVDDHVIEPAHLFETWLPKKYRDRGPKPLTAGIGELAYVGGKYQITMDPKGPPTDWWIYEDLKFPYKRNIAAVGFDRDEMTLEGITRAEMRRGCWDPVERLKDMDANHVEGSLCFPTFPRFCGQTFAEAHDKEVALACVRAYNDWMVEEWCGDSGGRLIPLCLIPLWDIGLAVAEIRRNAARGVKAVTFSEIPTHLGLPSIHSGYWDPFFAVCQETGTVVNMHIGSSSQMPAASPDAPPAVQAALSFNNAMASMMDFLFSGVLVKFPRLKLAYSEGQMGWIPYALERADDVWEEHRAWGGVRDLIPEPPSTYYYRQIFCCFFRDKHGVASIDVVGRDNATFETDYPHVDSTFPHTKEVALDHVEGLDDETVYKLMRGNAIRMLDLDLDRDLDHLGNRDHLGARDTLSSRDKADREGHHHHHH,soluble
15,MSLTERFVLRNVKRVNGEEVDIVIENNKIAQVTKAGAGEGGKVLDYSGTYVSSGWIDLHVHAFPEFDPYGDEVDEIGVKQGVTTIVDAGSCGADRIADLVKSREQAKTNLFAFLNISRIGLKRIDELSNMEWIDKEKVIEAVEKYKDVIVGLKARMSKSVVCDSGIEPLHIARDLSRETSLPIMVHIGSAPPRIEEVVPLLEKDDVITHYLNGKENNLFDEEGKPLPVLLDAVNRGVHLDVGHGNASFSFKVAEAAKRHGIAFNTISTDIYRKNRMHGPVYSMAHVLSKFLYLGYSLEEVIDAVTKHAAEWLKKPELGRIQEGDIANLTLFTVKDEKITLIDSEGDQRIAERRIDTKGVVINGSFIECEGHHHHHH,soluble
16,MSLTERPRDCRPVVRRARTSDVPAIKQLVDTYAGKILLEKNLVTLYEAVQEFWVAEHPDLYGKVVGCGALHVLWSDLGEIRTVAVDPAMTGHGIGHAIVDRLLQVARDLQLQRVFVLTFETEFFARHGFTEIEGTPVTAEVFDEMCRSYDIGVAEFLDLSYVKPNILGNSRMLLVLEGHHHHHH,soluble
17,MSLTESESGGDTMMAAVLDVLPHGRPGDDRPQHQKEPLAYALDIDEFYIYELQLADKDADIAFGDRIDLTEFGRVTEVEFEDIPSGARSELDYAVEEVVEANEQRFVDFYNDAQPITLRLHQLNLLPGIGKKLRNTILDERKRKPFESFEDLEKRVSGLHSPKETLVERILEELQDDDLKYRLFVRREEQSSEGHHHHHH,soluble
